According to article PMC3031960 (Journal of immunology (Baltimore, Md. : 1950), 2010):
Numbered stars: 1 amine (or outer) side, 2 acyl side, 3 side chain; on linkers, the order of the positions; unused ones are H or OH. Square brackets hold non-standard residues; d marks the D form. Ends that are not written are not given here. K(Palm) = CCCCCCCCCCCCCCCC(=O)NCCCC[C@H](N[*:1])C(=O)[*:2]; pY = N[C@@H](Cc1ccc(OP(=O)(O)O)cc1)C(=O)O

T1: pJAK2(1001–1013)
T1 peptide: {K(Palm)}-LPQDKE[pY]YKVKEP

B1: SOCS3-KIR (peptide)
peptide: {K(Palm)}-LRLKTFSSKSEYQLVV
B2: SOCS1-KIR (peptide)
peptide: {K(Palm)}-DTHFRTFRSHSDYRRI

Target: T1, pJAK2(1001–1013)
Test: ELISA

Row | Binder | binding result
1 | B1 | binds
2 | B2 | binds
